The target in test [1] is T1, c-MAF (Q1): fragment of c-MAF including Aa 19-208 (Homo sapiens (Human), UniProt O75444 19-208).
T1 construct: Recombinant antigen preparation used in SPR; also called c-MAF fragment
T1 sequence: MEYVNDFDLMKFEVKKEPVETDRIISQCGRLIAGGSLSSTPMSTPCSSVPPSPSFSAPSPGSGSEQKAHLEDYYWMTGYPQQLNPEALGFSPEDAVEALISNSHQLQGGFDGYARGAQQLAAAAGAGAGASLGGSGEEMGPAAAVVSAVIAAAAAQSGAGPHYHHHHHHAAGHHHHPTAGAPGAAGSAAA
Description: SPR, Biacore T200, 25 C; antibody captured on Protein A, c-MAF (Q1) as analyte at 6.5 nM; single concentration fit, 1:1 model. The protocol: Test measurements were conducted to confirm protein A-binding of the antibody INB-1-11-8 and to select appropriate capture levels for the kinetic measurements of the analyte. A capture level of 240 RU was chosen for the measurement with c-MAF (Q1), resulting in an expected Rmax of ca 64 RU for two 19.6 kDa antigens binding per antibody molecule. To generate sufficiently high binding signals for the peptide, a higher capture level of […] was chosen, also resulting in an expected Rmax of ca 30 RU. Serial dilutions of the antigen were injected for 180 s, followed by a 600 s buffer injection for off-rate determination (see FIG. 6). For the c-MAF fragment the molar concentrations used for the serial dilutions were calculated based on the concentrations determined by CFCA. The kinetic measurements were performed twice to confirm the binding behavior.
Based on this preliminary data, an affinity in the nM-range has been roughly estimated for the interaction. The binding is characterized by a very fast association rate and a fast dissociation rate, i.e. the binding is not very tight.

The test “Peptide 1 (epitope …)” deals with T2, Peptide 1 (epitope 83-EQKAHLEDYYWMTGYPQQ-100 of c-MAF of human origin) conjugated to BSA (human, also: conjugated to BSA).
T2 construct: also called antigen
T2 peptide: EQKAHLEDYYWMTGYPQQ
Put plainly: antigen-specific ELISA: epitope peptide conjugated to BSA on the plate, anti-rabbit secondary antibody conjugated to alkaline phosphatase. As for the experimental part:
An Antigen-specific ELISA was used to test the antibody sensitivity for the antigen. To this end, the epitope, Peptide 1, described above, was conjugated to BSA. This was attached to a the plate surface where the ELISA is performed and washed. The INB-1-11-8 c-MAF specific antibody was then applied so that it could bind to the antigen. Following, the incubation time and wash with TBST, a secondary antibody specific for rabbit antibodies and conjugated to Alkaline Phosphatase was used to score binding of the primary antibody to the antigen. Several dilutions were used to test the titer of the antibody, which is an indication of the affinity of the antibody for its antigen (FIG. 3A).
In general terms: ELISA stands for enzyme-linked immunosorbent assay.

No end group written: not given here.

B1: INB-1-11-8 c-MAF specific monoclonal antibody (rabbit) (antibody, V domains shown)
VH: QSLEESGGRLVTPGTPLTLTCTASGFSLNNYPMTWVRQAPGKGLDYIGVINNSGETAYATWAKRRFTISRTSTTLYLKIASPTIEDTATYFCARGGPVSSDMWGPGTLVIVSS
VL: AQVLTQTASPVSAVVGGTVTINCQSSQSVYRGDWLAWYQQRPGQPPKLLIYGASTLASGVPSRFKGSGSGTHFTLTISDLDCDDAATYYCAGGFSGHIYDFGGGTEVVVKG
notes: Rabbit monoclonal antibody; also called Clone ID11-8; antibody INB-1-11-8
By Kd is commonly meant the constant that tells how readily two partners part at equilibrium. Higher therefore signals lower affinity. One may read the koff as a measure of how fast the partners let go of each other. The low end stands for a long-lived complex, the high end for a short-lived complex. By kon is commonly meant the rate constant with which the complex forms. A lower kon goes with slower complex formation. With B1, in test [1], the Kd was found to be 1.1 nM, the koff came out at 0.0056 s⁻¹ and the kon turned out to be 5.3e+06 M⁻¹ s⁻¹. Moreover, the binding result with Peptide 1 (epitope …) was “binds”.

These data come from US20170369589A1 (INBIOMOTION S L, published 2017).
